Paper PMC4573856 (Genes & Development, 2015)
Read-outs that look alike come from different tables or passages of the source. Values belong to the binder of their own block, whether it stands above or below them.

Experiments:
[1] = biological target: T1, Dm eIF4E (residues 69-248) used for ITC (Drosophila melanogaster, UniProt P48598-2 69-248); experiment: ITC
T1 sequence (looked up): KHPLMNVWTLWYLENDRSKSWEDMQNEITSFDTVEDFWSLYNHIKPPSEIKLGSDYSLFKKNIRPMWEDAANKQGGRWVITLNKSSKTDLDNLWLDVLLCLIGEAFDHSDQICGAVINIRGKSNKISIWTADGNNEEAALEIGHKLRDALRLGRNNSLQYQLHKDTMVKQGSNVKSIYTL

[2] = biological target: T2, His6-tagged Dm eIF4E (residues 69-248) (Drosophila melanogaster, UniProt P48598-2 69-248); experiment: pull-down
T2 sequence (looked up): T1 sequence (looked up)

[3] = biological target: T2, His6-tagged Dm eIF4E (residues 69-248); experiment: pull-down; remark: listed apart in the source

binding result [2]: binds
Binder: SRVSYDREHLLYYRMSPHSWTLPTDWQKMQETAPSILRNKDLQD (domain or fragment, Drosophila melanogaster, UniProt Q9VR35 577-620, looked up) [GB1-tagged Dm Mxt C + NC IS-RR mutant peptide]

binding result [3]: binds
Binder: SRVSYDREHLLYYRMSPHSWTLPTDWQKMQETAPSILRNKDLQD (domain or fragment, Drosophila melanogaster, UniProt Q9VR35 577-620, looked up) [MBP-tagged Dm Mxt fragment 577-620 IS-RR mutant C-terminally fused to GB1]

binding result [3]: binds
B2: Dm eIF4G (residues 578-650) C-terminally fused to GB1 (domain or fragment, Drosophila melanogaster, UniProt O61380 578-650, looked up)
chain: PETTLNDKQDSTDLKVKVSAKISSIINYNEGQWSPNNPSGKKQYDREQLLQLREVKASRIQPEVKNVSILPQP

Continued, binder first:

Binder: SRVSYDIEHLLYYSMSPHSWTLPTDWQKMQETAPSILRNKDLQD (domain or fragment, Drosophila melanogaster, UniProt Q9VR35 577-620, looked up) [GB1-stabilized Dm Mxt peptide C + NC (residues 577-620)]
Kd [1]: 5 nM

B1: GB1-stabilized Dm Mxt peptide (residues 577-640) (domain or fragment, Drosophila melanogaster, UniProt Q9VR35 577-640, looked up)
chain: SRVSYDIEHLLYYSMSPHSWTLPTDWQKMQETAPSILRNKDLQDESQRFDGDKYLASIKTAAKR
modifications: also: 15N-labelled, GB1-stabilized (GB1 fusion)
Kd [1]: 0.5 nM
